The source of these data is patent publication US11136407.

Some results are limits rather than exact numbers.

The target in experiment [1] is CD9-3×FLAG-rabbitFc-Sortase-biotin (human; rabbit). As to the kind of experiment: SPR (IBIS MX96) on CD9 chip.
Experiment [2] shares this target. As to the kind of experiment: SPR, 1:1 model. (In general: In SPR one partner is held on a chip, and binding of the other changes the refractive index at the surface.)
For experiment [3] the target is unchanged. The experiment in a line: ELISA, biotinylated CD9-EC2-Fc on streptavidin plate, goat anti-mouse HRP. A general note: An ELISA detects its analyte on a solid surface through an enzyme-linked reagent.
The target is the same in experiment [4]. As to the kind of experiment: SPR; rests on the kd set to 0.1*10^-5; unit from the legend paragraph 216.
Experiment [5] shares this target. As to the kind of experiment: SPR (IBIS MX96), antibody injected over CD9-3×FLAG-rabbitFc-Sortase-biotin chip, 1:1 model.
Experiment [6] shares this target. The experiment in a line: SPR; * legend: dissociation too low for accurate fitting, a value of 0.1*10^-5 is used.
Experiment [7] has the same target. As to the kind of experiment: SPR, 1:1 model; unit from the legend paragraph 216.

For orientation: kon means a measure of how fast the partners come together. A higher kon goes with fast association. As a reminder, the EC50 is the concentration that produces a half-maximal response. A higher EC50 goes with lower potency in that assay. The term Kd denotes the constant that tells how readily two partners part at equilibrium. A lower Kd goes with higher affinity. What is called koff is the first-order rate constant of dissociation.

With mouse anti-CD9 antibody clone HI9a, in experiment [1], the fold affinity against AT14-012 was 19000 fold. Further, the kon in experiment [2] amounted to 430000 M⁻¹ s⁻¹. This substance also displayed an EC50 in experiment [3] of 0.02 µg/mL. Moreover, the Kd in experiment [4] and in experiment [5] was 0.00233 nM each time. In experiment [6], this substance had a koff of less than 1e-06 s⁻¹.

mouse anti-CD9 antibody clone ALB6 showed a fold dissociation against HI9a in experiment [1] of 22 fold. The same substance had a Kd in experiment [7] of 0.145 nM. In experiment [2], this substance had a koff of 2.16e-05 s⁻¹ and a kon of 151000 M⁻¹ s⁻¹. In addition, the EC50 in experiment [3] was 0.013 µg/mL. In experiment [5], this substance came in with a Kd of 0.145 nM.
